Laboratory results published in patent US12139531B2, “Compositions and methods useful in promoting milk production” (The Regents of the University of California, priority 2019, dated 2024).
Entries after “also recorded” stand apart in the source; their conditions may differ.

Experiments:
HC11 cells = assay: HC11 dome assay (milk dome formation on differentiation in DIP media); assay type: cell-based, mouse
Method: To investigate ROBO1 function during alveologenesis, Robo1 gene expression was inhibited in HC11 cells (Robo1 KD). HC11 cells are a well-established, prolactin-responsive model of lactation,^19,20. Cells in which Robo1 gene expression was not inhibited are referred to as WT or Robo1+/+ herein. To measure milk production, cells were grown to confluence and then primed by treatment with epidermal growth factor (EGF, 10 ng/ml). The EGF is administered for three days in combination with charcoal-stripped fetal bovine serum, followed by one day of charcoal-stripped fetal bovine serum in the absence of EGF. These primed cells are then differentiated by treatment with dexamethasone (1 μg/ml), insulin (5 μg/ml) and prolactin (Prl, 5 μg/ml) media (DIP media) for between 3 and 5 days (FIG. 2A). Differentiation (Dif) results in the development of milk-filled domes (FIG. 2B). […] If the cells were left undifferentiated (Undif), there was little dome formation in either WT or Robo1−/− cells (FIG. 2B). Next, tissue from Robo1 knockout mice (Robo1−/−) and wild type mice (WT or Robo1+/+) mice was analyzed. Mammary glands were harvested from pregnant day 18 WT and Robo1−/− animals and alveologenesis analyzed by serially sectioning, carmine staining and then quantifying the area occupied by alveoli in sections located at top, middle and bottom portions of the tissue.
Dome number formation in response to a titration of ROBO1 ECD fragments was quantified. […] A bovine ROBO1-Ig5 construct was also tested in this assay and, as with the rat constructs, more domes were formed in response to treatment with higher concentrations of […] (FIG. 7H).
HC11 cells were grown in RPMI 1640 media (Gibco) supplemented with 10% fetal bovine serum (BioFluid Technologies), 5 μg/mL insulin (Sigma), and 10 ng/ml epidermal growth factor (EGF; Sigma). To induce differentiation in HC11 cells, confluent plates were given fresh media (RPMI 1640 media supplemented with 5% charcoal-stripped fetal bovine serum (BioFluid Technologies), 5 μg/mL insulin, and 10 ng/ml epidermal growth factor (EGF; Sigma) for 3 days followed by 24 hours of priming in priming medium (RPMI 1640 media supplemented with 5% charcoal-stripped fetal bovine serum (BioFluid Technologies), and 5 μg/mL insulin. After priming, DIP medium (RPMI 1640 media supplemented with 5% charcoal-stripped fetal bovine serum (BioFluid Technologies), 10^−6 M dexamethasone (Sigma), 5 μg/mL insulin, and 5 μg/mL prolactin (National Hormone and Peptide program) was added with fresh media every 24 hours.

Notch signaling = assay: RT-qPCR of Notch effector expression (Hey1, Hes1) in HC11 cells; assay type: cell-based, mouse; conditions: HC11 cells treated with ROBO1-ECD fragments
Method: To examine the effects of ROBO1-ECD fragments on Notch signaling, HC11 cells were treated with ROBO1-ECD fragments and Notch effector expression assessed. […] In addition, HC11 cells were treated with ROBO-Ig5 during differentiation. These cells were then fractionated and a Western blot performed to detect HES1 and NOTCH4-ICD (FIG. 8B).
Total RNA was harvested from cells lysed in TRIzol reagent (Invitrogen) and phase separated according to manufacturer's protocol with an additional overnight RNA precipitation stem in ethanol (Macias et al., 2011). The RNA was further purified with TURBO DNase (Ambion) treatment. Total RNA quality was analyzed by agarose gel electrophoresis and quantified with an ND-1000 spectrophotometer (NanoDrop). cDNA libraries were prepared from 1 μg of total RNA using iScript cDNA synthesis kit (BioRad). Quantitative RT-PCR was performed in triplicates using light Cycler 480 SYBR Green I Master (Roche) and quantified using BioRad CFX'Connect Real-Time System and CFX Manager software (BioRad). Results were normalized to GAPDH.

[1] = Western blot of TCA-precipitated media for intact ROBO1-Ig5; assay type: physicochemical; conditions: after 6 days in media, absence and presence of heparin (300 ng/ml)
From the text: Three recombinant ROBO1 ECD constructs were constructed: one comprising two immunoglobulin (Ig) domains (ROBO1-Ig2), another comprising all five Ig domains (ROBO1-Ig5), and another comprising the entire extracellular domain (ROBO1-Ecto) (FIG. 6A). In other constructs, HA (hemagglutinin), Myc, and human and mouse immunoglobulin Fc were fused to the Robo1 ECDs (FIG. 6A, 5F right). Extracellular domains of Deleted in Colorectal Cancer (DCC), a structurally similar Ig superfamily member to ROBO1, comprising either two Ig (DCC-Ig2) or four Ig (DCC-Ig4) domains and tagged with HA were constructed for use as negative controls (FIG. 6A, 5F right). Expression secretion of the constructs was confirmed by overexpressing the constructs in HEK293 cells and performing Western blots on cell lysates and media (FIG. 6B). […] Robo1-Ig5 as used herein was expressed in HEK-293 cells in the absence and presence of heparin (300 ng/ml). Media were collected from these ROBO1-Ig5 overexpressing cells on days two, four and six following plasmid transfection. Dot blot dilution assays of the collected media were performed to evaluate the relative secretion of this soluble ROBO1 ECD (FIG. 6C).
Add 1 volume of TCA stock to 4 volumes of protein sample. Incubate 10 min at 4° C. Spin tube in microcentrifuge at 14K rpm, 5 min. Remove supernatant, leaving protein pellet intact Wash pellet with 200 μl cold acetone. […]

B1: ROBO1-Ig5: recombinant soluble ROBO1 ECD construct comprising all five Ig domains (protein)
chain: SRLRQEDFPPRIVEHPSDLIVSKGEPATLNCKAEGRPTPTIEWYKGGERVETDKDDPRSHRMLLPSGSLFFLRIVHGRKSRPDEGVYICVARNYLGEAVSHNASLEVAILRDDFRQNPSDVMVAVGEPAVMECQPPRGHPEPTISWKKDGSPLDDKDERITIRGGKLMITYTRKSDAGKYVCVGTNMVGERESEVAELTVLERPSFVKRPSNLAVTVDDSAEFKCEARGDPVPTVRWRKDDGELPKSRYEIRDDHTLKIRKVTAGDMGSYTCVAENMVGKAEASATLTVQEPPHFVVKPRDQVVALGRTVTFQCEATGNPQPAIFWRREGSQNLLFSYQPPQSSSRFSVSQTGDLTVTNVQRSDVGYYICQTLNVAGSIITKAYLEVTDVIADRPPPVIRQGPVNQTVAVDGTLTLSCVATGSPVPTILWRKDGVLVSTQDSRIKQLESGVLQIRYAKLGDTGRYTCTASTPSGEATWSAYIEVQEF
dome formation in control cells (Scr) (HC11 cells; HC11 Scramble KD (Scr) cells, ROBO1-ECD treatment): increased dome formation
dome formation in response to a titration of ECD fragments (HC11 cells; HC11 cells, increasing ECD concentration): higher rates of dome formation
dome formation with ECD fragments generated in the presence of heparin (HC11 cells; HC11 cells, vs same fragments generated in the absence of heparin (300 ng/ml)): fewer domes; also recorded: diminished
dome formation in Notch4 knockdown cells (shNotch4) (HC11 cells; HC11 shNotch4 cells, ROBO1-Ig5 treatment): same level of dome formation as untreated Notch4 knockdown cells; also recorded: unaffected
dome formation in cells in which Robo1 expression was inhibited (shRobo1) (HC11 cells; HC11 shRobo1 cells, ROBO1-Ig5 treatment): same level as that of control cells (Scr) treated with ROBO1-ECD fragments; also recorded: rescued
Hes1 expression (Notch signaling): lower expression; also recorded: decreased
Hey1 expression (Notch signaling): lower expression; also recorded: decreased
integrity of ROBO1-Ig5 protein in media [1]: intact; also recorded: no protein degradation
